In assay [1] the target is T1, IFN-α1 (human, UniProt A0A087WWS6 25-190).
T1 construct: also called Ala114 IFN-αD
As to the kind of experiment: ProteOn.

In assay [2] the target is T2, IFN-αG (human, UniProt P01569 24-189).
T2 construct: also called IFN-α5
As to the kind of experiment: ProteOn.

In assay [3] the target is T3, IFN-αH2 (human, UniProt P01570 24-189).
T3 construct: also called IFN-α14
As to the kind of experiment: ProteOn.

For assay [4], the target named is T4, IFN-αJ1 (human, UniProt P01567 24-189).
T4 construct: also called IFN-α7
As to the kind of experiment: ProteOn.

Assay [5] deals with T5, IFN-αK (human, UniProt P05013 24-189).
T5 construct: also called IFN-α6
As to the kind of experiment: ProteOn.

Assay [6] has as its target T6, IFN-αWA (human, UniProt P05015 24-189).
T6 construct: also called IFN-α16
As to the kind of experiment: ProteOn.

For assay [7], the target named is T7, IFN-α4a (human, UniProt P05014 24-189).
T7 construct: also called IFN-αM1
As to the kind of experiment: ProteOn.

Assay [8] addresses IFN-β (human, UniProt P01574 22-187). As to the kind of experiment: ProteOn.
Assay [9] concerns the target T8, Chimp IFN-ω (chimpanzee, UniProt P05000 24-195 (human entry)).
T8 construct: also called chimpanzee IFN-ω
As to the kind of experiment: ProteOn.

For assay [10], the target named is T9, Cyno IFN-ω (cynomolgus, UniProt P05000 24-195 (human entry)).
T9 construct: also called cynomolgus IFN-ω
T9 chain: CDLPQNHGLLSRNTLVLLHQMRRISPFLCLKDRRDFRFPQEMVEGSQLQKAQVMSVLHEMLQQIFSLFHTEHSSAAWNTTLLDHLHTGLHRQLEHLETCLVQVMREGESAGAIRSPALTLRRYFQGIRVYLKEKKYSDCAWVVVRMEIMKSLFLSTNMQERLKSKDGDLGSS
As to the kind of experiment: ProteOn.

Assay [11] addresses T10, IFN-αC (human, UniProt P01566 24-189).
T10 construct: also called IFN-α10
As to the kind of experiment: ProteOn.

Assay [12] addresses T11, IFN-αD (human, UniProt A0A087WWS6 25-190).
T11 construct: also called Val114 IFN-α1
T11 chain: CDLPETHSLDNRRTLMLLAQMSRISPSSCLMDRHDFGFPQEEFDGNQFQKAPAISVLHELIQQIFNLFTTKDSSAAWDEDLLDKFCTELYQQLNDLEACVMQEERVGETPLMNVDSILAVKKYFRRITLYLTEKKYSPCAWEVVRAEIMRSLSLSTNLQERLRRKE
As to the kind of experiment: ProteOn.

Assay [13] has as its target T12, IFN-αF (human, UniProt P01568 24-189).
T12 construct: also called IFN-α21
T12 chain: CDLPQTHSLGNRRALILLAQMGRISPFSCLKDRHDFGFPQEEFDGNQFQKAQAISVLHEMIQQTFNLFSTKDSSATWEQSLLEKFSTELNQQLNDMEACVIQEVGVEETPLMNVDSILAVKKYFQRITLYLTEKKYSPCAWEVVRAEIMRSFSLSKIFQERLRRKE
As to the kind of experiment: ProteOn.

Assay [14] deals with T2, IFN-αG. As to the kind of experiment: cell-based or functional assay.
For assay [15], the target named is T3, IFN-αH2. As to the kind of experiment: cell-based or functional assay.
The target of assay [16] is T4, IFN-αJ1. As to the kind of experiment: cell-based or functional assay.
Assay [17] concerns the target T5, IFN-αK. As to the kind of experiment: cell-based or functional assay.
Assay [18] concerns the target T6, IFN-αWA. As to the kind of experiment: cell-based or functional assay.
Assay [19] deals with T7, IFN-α4a. As to the kind of experiment: cell-based or functional assay.
In assay [20] the target is human IFN-ω (human, UniProt P05000 24-195). As to the kind of experiment: cell-based or functional assay.
Assay [21] has as its target T10, IFN-αC. As to the kind of experiment: cell-based or functional assay.
Assay [22] concerns the target T12, IFN-αF. As to the kind of experiment: cell-based or functional assay.

By Kd is commonly meant the equilibrium constant for the complex coming apart. A higher Kd goes with weaker binding.

B1: IFWM371 (antibody, IgG1, V domains shown)
VH: EVQLVQSGAEVKKPGESLKISCKGSGYSFTSYWIGWVRQMPGKGLEWMGIIDPSDSDTRYSPSFQGQVTISADKSISTAYLQWSSLKASDTAMYYCARHPGLNWAPDFDYWGQGTLVTVSS
VL: not shown
notes: Fab cloned into IgG1/kappa background; also called IFWB351; parental mAb
B1: the binding result in assay [1], in [8] and in assay [12] was “no binding” each time. Moreover, the Kd was determined as 1.11 nM in assay [2]; 0.179 nM in assay [3]; 10.8 nM in assay [4]; 0.245 nM in assay [5]; 3.18 nM in [6]; 5.39 nM in assay [7]. Besides, the dissociation constant Kd in assay [9] was determined as 1.08 nM; in assay [10] it was 0.887 nM; in [11] it was 1.67 nM; in assay [13], 5.31 nM. Further, the “IC50 (nM), ISRE reporter gene assay” value is 12.9 nM in assay [14]; 9.6 nM in assay [15]; 35.7 nM in assay [16]; 7.3 nM in assay [17]; 74.2 nM in assay [18]; 32.8 nM in assay [19]. Further, the “IC50 (nM), ISRE reporter gene assay” value in assay [20] turned out to be 43.9 nM; in [21] it was 53.9 nM; in assay [22], 16 nM.

Values taken from patent publication US20150368338A1 (Janssen / Centocor, published 2015).
